Laboratory results taken from IntAct's records for PubMed 20959446.

B1: CMRF35-like molecule 6 (Homo sapiens), Q08708 (parent)
chain: MTARAWASWRSSALLLLLVPGYFPLSHPMTVAGPVGGSLSVQCRYEKEHRTLNKFWCRPPQILRCDKIVETKGSAGKRNGRVSIRDSPANLSFTVTLENLTEEDAGTYWCGVDTPWLRDFHDPIVEVEVSVFPAGTTTASSPQSSMGTSGPPTKLPVHTWPSVTRKDSPEPSPHPGSLFSNVRFLLLVLLELPLLLSMLGAVLWVNRPQRSSRSRQNWPKGENQ
partner: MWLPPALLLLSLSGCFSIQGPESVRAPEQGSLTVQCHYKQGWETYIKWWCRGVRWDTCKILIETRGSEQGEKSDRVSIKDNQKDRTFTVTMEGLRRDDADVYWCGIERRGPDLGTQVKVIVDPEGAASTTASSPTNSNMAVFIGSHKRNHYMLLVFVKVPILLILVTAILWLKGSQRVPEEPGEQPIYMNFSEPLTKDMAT
B2: CMRF35-like molecule 6 (Homo sapiens), Q08708 (parent)
chain: B1 chain
B3: CMRF35-like molecule 7 (Homo sapiens), A8K4G0 (parent)
chain: B1 partner
partner: B1 chain

Variants of: B1
Conditions: with clm7_human CD300LB, A8K4G0

Row | effect of a mutation on the interaction | Variant
1 | with no effect | MTARAWASWRSSALLLLLVPGYFPLSHPMTVAGPVGGSLSVQCRYEKEHRTLNKFWCRPPQILRCDKIVETKGSAGKRNGRVSIRDSPANLSFTVTLENLTEEDAGTYWCGVDTPWLRDFHDPIVEVEVSVFPAGTTTASSPQSSMGTSGPPTKLPVHTWPSVTRKDSPEPSPHPGSLFSNVRFLLLVLLVLPLLLSMLGAVLWVNRPQRSSRSRQNWPKGENQ [E191V]

Variants of: B2
Conditions: with fcerg_human FCER1G

Row | effect of a mutation on the interaction | Variant
2 | with no effect | MTARAWASWRSSALLLLLVPGYFPLSHPMTVAGPVGGSLSVQCRYEKEHRTLNKFWCRPPQILRCDKIVETKGSAGKRNGRVSIRDSPANLSFTVTLENLTEEDAGTYWCGVDTPWLRDFHDPIVEVEVSVFPAGTTTASSPQSSMGTSGPPTKLPVHTWPSVTRKDSPEPSPHPGSLFSNVRFLLLVLLVLPLLLSMLGAVLWVNRPQRSSRSRQNWPKGENQ [E191V]

Variants of: B3
Conditions: with clm6_human CD300C, Q08708

Row | Variant | effect of a mutation on the interaction
3 | MWLPPALLLLSLSGCFSIQGPESVRAPEQGSLTVQCHYKQGWETYIKWWGRGVRWDTCKILIETRGSEQGEKSDRVSIKDNQKDRTFTVTMEGLRRDDADVYWCGIERRGPDLGTQVKVIVDPEGAASTTASSPTNSNMAVFIGSHKRNHYMLLVFVKVPILLILVTAILWLKGSQRVPEEPGEQPIYMNFSEPLTKDMAT [C50G] | with no effect
4 | MWLPPALLLLSLSGCFSIQGPESVRAPEQGSLTVQCHYKQGWETYIKWWCRGVRWDTCKILISTRGSEQGEKSDRVSIKDNQKDRTFTVTMEGLRRDDADVYWCGIERRGPDLGTQVKVIVDPEGAASTTASSPTNSNMAVFIGSHKRNHYMLLVFVKVPILLILVTAILWLKGSQRVPEEPGEQPIYMNFSEPLTKDMAT [E63S] | with no effect
5 | MWLPPALLLLSLSGCFSIQGPESVRAPEQGSLTVQCHYKQGWETYIKWWCRGVRGDTCKILIETRGSEQGEKSDRVSIKDNQKDRTFTVTMEGLRRDDADVYWCGIERRGPDLGTQVKVIVDPEGAASTTASSPTNSNMAVFIGSHKRNHYMLLVFVKVPILLILVTAILWLKGSQRVPEEPGEQPIYMNFSEPLTKDMAT [W55G] | with no effect
6 | MWLPPALLLLSLSGCFSIQGPESVRAPEQGSLTVQCHYKQGWETYIKWWCRGVRWDTCKILIETRGSEQGEKSDRVSIKDNQKDRTFTVTMEGLRRDDADVYGCGIERRGPDLGTQVKVIVDPEGAASTTASSPTNSNMAVFIGSHKRNHYMLLVFVKVPILLILVTAILWLKGSQRVPEEPGEQPIYMNFSEPLTKDMAT [W103G] | with no effect

Now from value to variant:

Row | effect of a mutation on the interaction | Variant
7 | with no effect | MWLPPALLLLSLSGCFSIQGPESVRAPEQGSLTVQCHYKQGWETYIKWWCRGVRWDTCKILIETRGSEQGEKSDRVSIKDNQKDRTFTVTMEGLRRDDADVYWCGIERRGPMLGTQVKVIVDPEGAASTTASSPTNSNMAVFIGSHKRNHYMLLVFVKVPILLILVTAILWLKGSQRVPEEPGEQPIYMNFSEPLTKDMAT [D112M]
8 | with no effect | MWLPPALLLLSLSGCFSIQGPESVRAPEQGSLTVQCHYKQGWETYIKWWCRGVRWDTCKILIETRGSEQGEKSDRVSIKDNQKDRTFTVTMEGLRRDDADVYWCGIERRGPDLGTQVKVIVDPEGAASTTASSPTNSNMAVFIGSHKRNHYMLLVFVLVPILLILVTAILWLKGSQRVPEEPGEQPIYMNFSEPLTKDMAT [K158L]
